This note sets out measurements from publication PMC6420622, “Mutations in the PKM2 exon-10 region are associated with reduced allostery and increased nuclear translocation” (Communications Biology, 2019).

This data set concerns the molecule itself. As to the kind of experiment: crystal structure; PKM2 variant with Ser and FBP; hanging drop, 0.1 M Tris pH 7.5, 0.2 M NaCl, 14% PEG 3350, 4 °C; molecular replacement with PDB 4B2D.

B1: His-tagged PKM2 R399E (enzyme)
chain: not shown
notes: Pyruvate kinase isoform M2 (PKM2), engineered mutant R399E; full-length cDNA in pET28a, site-directed mutagenesis; Crystallised with Ser and FBP (PDB 5X0I); also called His-PKM2 R399E; source: E. coli BL21 (DE3), purified (cobalt-chelated TALON resin)
B1: the binding result was “binds”.
